# B1: DGL871 (bispecific antibody)
# chain 1: not shown
# chain 2: EVQLLESGGGLVQPGGSLRLSCAASGFTFSDYYMTWIRQAPGKGLEWVSSISGGSTYYADSRKGRFTISRDNSENTLYLQMNSLRAEDTAVYYCARDFGVAGWFGQYGMDVWGQGTLVTVSSGGGGSGGGGSGGGGSQSVLTQPPSASGTPGQRVTISCTGSSSNIGAGYDVHWYQQLPGTAPKLLIYRSNQRPSGVPDRFSGSKSGTSASLAISGLRSEDEADYYCSSYAGNYNLVFGGGTKLTVLDKTHTCPPCPAPEAAGAPSVFLFPPKPKDTLMISRTPEVTCVVVDVSHEDPEVKFNWYVDGVEVHNAKTKPREEQYNSTYRVVSVLTVLHQDWLNGKEYKCKVSNKALPAPIEKTISKAKGQPREPQVCTLPPSRDELTKNQVSLSCAVKGFYPSDIAVEWESNGQPENNYKTTPPVLDSDGSFFLVSKLTVDKSRWQQGNVFSCSVMHEALHNHYTQKSLSLSPGWSHPQFEK
# B2: DGL872 (bispecific antibody)
# chain 1: not shown
# chain 2: EVQLLESGGGLVQPGGSLRLSCAASGFTFSDYYMTWIRQAPGKGLEWVSSISGGSTYYADSRKGRFTISRDNSENTLYLQMNSLRAEDTAVYYCARDFGVAGWFGQYGMDVWGQGTLVTVSSGGGGSGGGGSGGGGSQSVLTQPPSASGTPGQRVTISCTGSSSNIGAGYDVHWYQQLPGTAPKLLIYRSNQRPSGVPDRFSGSKSGTSASLAISGLRSEDEADYYCSSYAGNYNLVFGGGTKLTVLDKTHTCPPCPAPEAAGAPSVFLFPPKPKDTLMISRTPEVTCVVVDVSHEDPEVKFNWYVDGVEVHNAKTKPREEQYNSTYRVVSVLTVLHQDWLNGKEYKCKVSNKALPAPIEKTISKAKGQPREPQVCTLPPSRDELTKNQVSLSCAVKGFYPSDIAVEWESNGQPENNYKTTPPVLDSDGSFFLVSKLTVDKSRWQQGNVFSCSVMHEALHNHYTQKSLSLSPGWSHPQFEK
# B3: DGL873 (bispecific antibody)
# chain 1: not shown
# chain 2: EVQLLESGGGLVQPGGSLRLSCAASGFTFSDYYMTWIRQAPGKGLEWVSSISGGSTYYADSRKGRFTISRDNSENTLYLQMNSLRAEDTAVYYCARDFGVAGWFGQYGMDVWGQGTLVTVSSGGGGSGGGGSGGGGSQSVLTQPPSASGTPGQRVTISCTGSSSNIGAGYDVHWYQQLPGTAPKLLIYRSNQRPSGVPDRFSGSKSGTSASLAISGLRSEDEADYYCSSYAGNYNLVFGGGTKLTVLDKTHTCPPCPAPEAAGAPSVFLFPPKPKDTLMISRTPEVTCVVVDVSHEDPEVKFNWYVDGVEVHNAKTKPREEQYNSTYRVVSVLTVLHQDWLNGKEYKCKVSNKALPAPIEKTISKAKGQPREPQVCTLPPSRDELTKNQVSLSCAVKGFYPSDIAVEWESNGQPENNYKTTPPVLDSDGSFFLVSKLTVDKSRWQQGNVFSCSVMHEALHNHYTQKSLSLSPGWSHPQFEK
# B4: DGL874 (bispecific antibody)
# chain 1: not shown
# chain 2: EVQLLESGGGLVQPGGSLRLSCAASGFTFSDYYMTWIRQAPGKGLEWVSSISGGSTYYADSRKGRFTISRDNSENTLYLQMNSLRAEDTAVYYCARDFGVAGWFGQYGMDVWGQGTLVTVSSGGGGSGGGGSGGGGSQSVLTQPPSASGTPGQRVTISCTGSSSNIGAGYDVHWYQQLPGTAPKLLIYRSNQRPSGVPDRFSGSKSGTSASLAISGLRSEDEADYYCSSYAGNYNLVFGGGTKLTVLDKTHTCPPCPAPEAAGAPSVFLFPPKPKDTLMISRTPEVTCVVVDVSHEDPEVKFNWYVDGVEVHNAKTKPREEQYNSTYRVVSVLTVLHQDWLNGKEYKCKVSNKALPAPIEKTISKAKGQPREPQVCTLPPSRDELTKNQVSLSCAVKGFYPSDIAVEWESNGQPENNYKTTPPVLDSDGSFFLVSKLTVDKSRWQQGNVFSCSVMHEALHNHYTQKSLSLSPGWSHPQFEK
# B5: DGL875 (bispecific antibody)
# chain 1: not shown
# chain 2: EVQLLESGGGLVQPGGSLRLSCAASGFTFSDYYMTWIRQAPGKGLEWVSSISGGSTYYADSRKGRFTISRDNSENTLYLQMNSLRAEDTAVYYCARDFGVAGWFGQYGMDVWGQGTLVTVSSGGGGSGGGGSGGGGSQSVLTQPPSASGTPGQRVTISCTGSSSNIGAGYDVHWYQQLPGTAPKLLIYRSNQRPSGVPDRFSGSKSGTSASLAISGLRSEDEADYYCSSYAGNYNLVFGGGTKLTVLDKTHTCPPCPAPEAAGAPSVFLFPPKPKDTLMISRTPEVTCVVVDVSHEDPEVKFNWYVDGVEVHNAKTKPREEQYNSTYRVVSVLTVLHQDWLNGKEYKCKVSNKALPAPIEKTISKAKGQPREPQVCTLPPSRDELTKNQVSLSCAVKGFYPSDIAVEWESNGQPENNYKTTPPVLDSDGSFFLVSKLTVDKSRWQQGNVFSCSVMHEALHNHYTQKSLSLSPGWSHPQFEK
# B6: DGL876 (bispecific antibody)
# chain 1: not shown
# chain 2: EVQLLESGGGLVQPGGSLRLSCAASGFTFSDYYMTWIRQAPGKGLEWVSSISGGSTYYADSRKGRFTISRDNSENTLYLQMNSLRAEDTAVYYCARDFGVAGWFGQYGMDVWGQGTLVTVSSGGGGSGGGGSGGGGSQSVLTQPPSASGTPGQRVTISCTGSSSNIGAGYDVHWYQQLPGTAPKLLIYRSNQRPSGVPDRFSGSKSGTSASLAISGLRSEDEADYYCSSYAGNYNLVFGGGTKLTVLDKTHTCPPCPAPEAAGAPSVFLFPPKPKDTLMISRTPEVTCVVVDVSHEDPEVKFNWYVDGVEVHNAKTKPREEQYNSTYRVVSVLTVLHQDWLNGKEYKCKVSNKALPAPIEKTISKAKGQPREPQVCTLPPSRDELTKNQVSLSCAVKGFYPSDIAVEWESNGQPENNYKTTPPVLDSDGSFFLVSKLTVDKSRWQQGNVFSCSVMHEALHNHYTQKSLSLSPGWSHPQFEK
# B7: DGL877 (bispecific antibody)
# chain 1: not shown
# chain 2: EVQLLESGGGLVQPGGSLRLSCAASGFTFSDYYMTWIRQAPGKGLEWVSSISGGSTYYADSRKGRFTISRDNSENTLYLQMNSLRAEDTAVYYCARDFGVAGWFGQYGMDVWGQGTLVTVSSGGGGSGGGGSGGGGSQSVLTQPPSASGTPGQRVTISCTGSASNIGAGYDVHWYQQLPGTAPKLLIYRSNQRPSGVPDRFSGSKSGTSASLAISGLRSEDEADYYCSSYAGNYNLVFGGGTKLTVLDKTHTCPPCPAPEAAGAPSVFLFPPKPKDTLMISRTPEVTCVVVDVSHEDPEVKFNWYVDGVEVHNAKTKPREEQYNSTYRVVSVLTVLHQDWLNGKEYKCKVSNKALPAPIEKTISKAKGQPREPQVCTLPPSRDELTKNQVSLSCAVKGFYPSDIAVEWESNGQPENNYKTTPPVLDSDGSFFLVSKLTVDKSRWQQGNVFSCSVMHEALHNHYTQKSLSLSPGWSHPQFEK
# B8: DGL878 (bispecific antibody)
# chain 1: not shown
# chain 2: EVQLLESGGGLVQPGGSLRLSCAASGFTFSDYYMTWIRQAPGKGLEWVSSISGGSTYYADSRKGRFTISRDNSENTLYLQMNSLRAEDTAVYYCARDFGVAGWFGQYGMDVWGQGTLVTVSSGGGGSGGGGSGGGGSQSVLTQPPSASGTPGQRVTISCTGSSSNIGAGYDVHWYQQLPGTAPKLLIYRSNQRPAGVPDRFSGSKSGTSASLAISGLRSEDEADYYCSSYAGNYNLVFGGGTKLTVLDKTHTCPPCPAPEAAGAPSVFLFPPKPKDTLMISRTPEVTCVVVDVSHEDPEVKFNWYVDGVEVHNAKTKPREEQYNSTYRVVSVLTVLHQDWLNGKEYKCKVSNKALPAPIEKTISKAKGQPREPQVCTLPPSRDELTKNQVSLSCAVKGFYPSDIAVEWESNGQPENNYKTTPPVLDSDGSFFLVSKLTVDKSRWQQGNVFSCSVMHEALHNHYTQKSLSLSPGWSHPQFEK
# Molecular target: ALK-1/BMPR-2 receptor pair of the PathHunter U2Os dimerization cells (DiscoverX 93-0962C3) (UniProt P37023 22-503; Q13873 27-1038)
# Experiment: cell-based or functional assay
# Sequence of ALK-1/BMPR-2 receptor pair of the PathHunter U2Os dimerization cells (DiscoverX 93-0962C3) (P37023 22-503, chain 1 of 2): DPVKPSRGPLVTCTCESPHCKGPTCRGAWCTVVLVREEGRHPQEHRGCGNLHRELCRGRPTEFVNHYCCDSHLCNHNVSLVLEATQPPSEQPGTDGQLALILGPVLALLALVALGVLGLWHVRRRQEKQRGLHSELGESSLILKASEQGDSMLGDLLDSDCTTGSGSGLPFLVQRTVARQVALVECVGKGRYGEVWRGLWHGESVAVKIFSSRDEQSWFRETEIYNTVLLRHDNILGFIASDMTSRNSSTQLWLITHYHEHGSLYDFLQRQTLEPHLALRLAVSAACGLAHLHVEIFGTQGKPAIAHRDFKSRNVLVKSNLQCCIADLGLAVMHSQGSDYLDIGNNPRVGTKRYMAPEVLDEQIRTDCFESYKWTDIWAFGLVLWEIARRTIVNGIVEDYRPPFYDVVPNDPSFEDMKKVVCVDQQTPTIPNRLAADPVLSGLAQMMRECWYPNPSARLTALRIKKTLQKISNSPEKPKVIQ
# Sequence of ALK-1/BMPR-2 receptor pair of the PathHunter U2Os dimerization cells (DiscoverX 93-0962C3) (Q13873 27-1038, chain 2 of 2): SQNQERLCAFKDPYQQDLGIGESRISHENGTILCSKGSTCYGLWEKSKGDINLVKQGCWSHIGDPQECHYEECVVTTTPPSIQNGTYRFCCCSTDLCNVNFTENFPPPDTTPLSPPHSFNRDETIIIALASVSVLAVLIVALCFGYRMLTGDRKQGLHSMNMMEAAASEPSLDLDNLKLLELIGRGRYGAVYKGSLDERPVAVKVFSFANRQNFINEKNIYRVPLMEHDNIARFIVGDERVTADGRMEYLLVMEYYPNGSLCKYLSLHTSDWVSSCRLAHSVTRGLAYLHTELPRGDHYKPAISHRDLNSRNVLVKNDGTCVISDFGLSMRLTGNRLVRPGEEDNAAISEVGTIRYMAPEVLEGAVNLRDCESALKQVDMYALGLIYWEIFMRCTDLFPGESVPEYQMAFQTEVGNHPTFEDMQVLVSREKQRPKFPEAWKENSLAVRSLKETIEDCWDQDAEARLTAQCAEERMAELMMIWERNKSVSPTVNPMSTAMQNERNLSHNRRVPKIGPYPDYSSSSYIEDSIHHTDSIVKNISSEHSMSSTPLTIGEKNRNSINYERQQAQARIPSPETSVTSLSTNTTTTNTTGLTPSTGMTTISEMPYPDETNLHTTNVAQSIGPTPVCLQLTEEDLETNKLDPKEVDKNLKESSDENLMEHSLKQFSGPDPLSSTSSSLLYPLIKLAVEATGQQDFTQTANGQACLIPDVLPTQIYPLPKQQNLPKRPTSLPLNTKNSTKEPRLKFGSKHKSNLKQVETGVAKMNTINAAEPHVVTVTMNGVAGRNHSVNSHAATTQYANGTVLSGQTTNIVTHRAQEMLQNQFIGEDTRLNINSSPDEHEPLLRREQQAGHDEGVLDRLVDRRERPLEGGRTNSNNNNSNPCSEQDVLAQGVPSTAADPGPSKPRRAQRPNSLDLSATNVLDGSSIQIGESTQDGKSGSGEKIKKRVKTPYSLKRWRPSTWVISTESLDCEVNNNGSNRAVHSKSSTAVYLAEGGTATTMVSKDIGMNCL
Binder,% Emax BMP9 [%],Emax (RLU)
B1,62,1.59e+06
B2,57,1.46e+06
B3,60,1.55e+06
B4,61,1.56e+06
B5,65,1.66e+06
B6,61,1.57e+06
B7,76,1.95e+06
B8,73,1.88e+06
